The results in this text go back to patent US20260055205A1 (published 2026).

Assay [1] deals with T1, cynomolgus monkey CD3 epsilon (cynomolgus monkey, UniProt Q95LI5 22-117, limits assumed).
T1 construct: also called cyCD3e; cyno CD3
T1 sequence (looked up): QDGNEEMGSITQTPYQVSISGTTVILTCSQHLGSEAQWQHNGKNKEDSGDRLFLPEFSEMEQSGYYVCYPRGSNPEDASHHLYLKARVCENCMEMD
As to the kind of experiment: BLI or SPR.

The next assay deals with T2, human CD3 epsilon (human, UniProt P07766 23-126, limits assumed).
T2 construct: also called huCD3e
The experiment in a line: BLI or SPR.

Assay [2] addresses T3, human PSMA-Fc (human, UniProt Q04609 44-750).
T3 construct: also called Human PSMA-Fc fusion
As to the kind of experiment: Octet.

In assay [3] the target is T3, human PSMA-Fc. The experiment in a line: Octet, PSMA-Fc. Here is the method: Binding affinity of select PSMA PTE variants was tested by Octet.
For the next assay, the target named is T4, cynomolgus monkey PSMA (cynomolgus monkey, UniProt A0A2K5VNZ0 44-750).
T4 construct: also called cyPSMA; cyno PSMA
The experiment in a line: BLI or SPR.

The target in the next assay is T5, human PSMA (human, UniProt Q04609 44-750, limits assumed).
T5 construct: also called huPSMA; hPSMA
As to the kind of experiment: BLI or SPR.

T3 sequence (Q04609 44-750 limits assumed): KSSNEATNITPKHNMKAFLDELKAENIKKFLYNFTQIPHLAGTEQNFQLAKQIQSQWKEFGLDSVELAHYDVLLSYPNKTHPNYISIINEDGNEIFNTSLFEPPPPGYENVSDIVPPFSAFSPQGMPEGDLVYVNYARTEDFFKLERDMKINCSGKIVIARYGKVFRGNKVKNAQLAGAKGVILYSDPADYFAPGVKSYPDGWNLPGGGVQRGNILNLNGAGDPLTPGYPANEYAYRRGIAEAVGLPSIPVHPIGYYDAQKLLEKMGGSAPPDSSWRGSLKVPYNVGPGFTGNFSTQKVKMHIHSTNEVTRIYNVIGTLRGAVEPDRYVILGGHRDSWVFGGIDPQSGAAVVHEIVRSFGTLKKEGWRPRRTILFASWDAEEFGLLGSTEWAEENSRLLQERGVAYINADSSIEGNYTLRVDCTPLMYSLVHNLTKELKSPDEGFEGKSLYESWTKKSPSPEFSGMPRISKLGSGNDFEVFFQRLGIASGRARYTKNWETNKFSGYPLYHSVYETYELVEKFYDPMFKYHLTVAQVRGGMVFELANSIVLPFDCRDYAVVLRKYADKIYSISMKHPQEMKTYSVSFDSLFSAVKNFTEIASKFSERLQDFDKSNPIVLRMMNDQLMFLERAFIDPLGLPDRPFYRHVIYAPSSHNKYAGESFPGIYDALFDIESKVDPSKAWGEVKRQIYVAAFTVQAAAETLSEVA
T5 sequence (Q04609 44-750 limits assumed): as above
T2 sequence (P07766 23-126 limits assumed): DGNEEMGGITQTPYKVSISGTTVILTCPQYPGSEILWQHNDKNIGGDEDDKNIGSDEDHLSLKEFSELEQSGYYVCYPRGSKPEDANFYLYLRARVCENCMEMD

B1: AMX-500 (bispecific antibody)
chain: ASSATPESGPGTSTEPSEGSAPGTSESATPESGPGSGPGTSESATPGTSESATPESGPGSEPATSGSETPGTSESATPESGPGTSTEPSEGSAPGSPAGSPTSTEEGTSESATPESGPGSEPATSGSETPGTSESATPESGPGSPAGSPTSTEEGSPAGSPTSTEEGTSTEPSEGSAPGTSESATPESGPGTSESATPESGPGTSESATPESGPGSEPATSGSETPGSEPATSGSETPGSPAGSPTSTEEGTSTEPSEGSAPGTSTEPSEGSAPGSEPATSGSETPGTSESATPEAGRSASHTPAGLTGPGTSESATPESQVQLVESGGGVVQPGRSLRLSCAASGRTFGIYVWGWFRQAPGKEREFVGAMSWSGSNRKVSDSVKGRFTISRDNSKNTLYLQMNSLRAEDTAVYYCAASNKEYGRTWYDFNESDYWGQGTQVTVSSGGGGSGGGSELVVTQEPSLTVSPGGTVTLTCRSSNGAVTSSNYANWVQQKPGQAPRGLIGGTNKRAPGTPARFSGSLLGGKAALTLSGVQPEDEAVYYCALWYPNLWVFGGGTKLTVLSESATPESGPGTSPGATPESGPGTSESATPEVQLVESGGGIVQPGGSLRLSCAASGFTFSTYAMNWVRQAPGKGLEWVGRIRTKRNNYATYYADSVKGRFTISRDDSKNTVYLQMNSLKTEDTAVYYCVRHENFGNSYVSWFAHWGQGTLVTVSSGTATPESGPGEAGRSASHTPAGLTGPATPESGPGTSESATPESGPGSPAGSPTSTEEGTSESATPESGPGSEPATSGSETPGTSESATPESGPGTSTEPSEGSAPGTSTEPSEGSAPGTSTEPSEGSAPGTSTEPSEGSAPGTSTEPSEGSAPGTSTEPSEGSAPGSPAGSPTSTEEGTSTEPSEGSAPGTSESATPESGPGSEPATSGSETPGTSESATPESGPGSEPATSGSETPGTSESATPESGPGTSTEPSEGSAPGTSESATPESGPGSPAGSPTSTEEGSPAGSPTSTEEGSPAGSPTSTEEGTSESATPESGPGTSTEPSEGSAPGTSESATPESGPGSEPATSGSETPGTSESATPESGPGSEPATSGSETPGTSESATPESGPGTSTEPSEGSAPGSPAGSPTSTEEGTSESATPESGPGSEPATSGSETPGTSESATPESGPGSPAGSPTSTEEGSPAGSPTSTEEGTSTEPSEGSAPGTSESATPESGPGTSESATPESGPGTSPSATPESGPGSEPATSGSETPGSEPATSGSETPGSPAGSPTSTEEGTSTEPSEGSAPGTSTEPSEGSAPGSEPATSGSETPGTSESAGEPEA
notes: also called AC3896; AMX-500-P4
On to B1, for which the Kd came to 70 nM in assay [1] and 90 nM with human CD3 epsilon.

B2: uTCE of AC3265 (bispecific antibody)
chain: QVQLVESGGGVVQPGRSLRLSCAASGRTFGIYVMGWYRQAPGKEREFVAAISWSGSNRLVSDSVKGRFTISRDNSKNTLYLQMNSLRAEDTAVYYCAASNRLYGRTWYDFNESDYWGQGTQVTVSSGGGGSGGGSELVVTQEPSLTVSPGGTVTLTCRSSNGAVTSSNYANWVQQKPGQAPRGLIGGTNKRAPGTPARFSGSLLGGKAALTLSGVQPEDEAVYYCALWYPNLWVFGGGTKLTVLGATPPETGAETESPGETTGGSAESEPPGEGEVQLLESGGGIVQPGGSLKLSCAASGFTFNTYAMNWVRQAPGKGLEWVARIRSKYNNYATYYADSVKDRFTISRDDSKNTVYLQMNNLKTEDTAVYYCVRHENFGNSYVSWFAHWGQGTLVTVSS
notes: Linker given only as 9 residues; also called PSMA.55
In the assay with human PSMA-Fc [2], B2 yielded a Kd of 2.7 nM. In the assay with human PSMA-Fc [3], this molecule gave a Kd of 2.7 nM, a koff of 0.00028 s⁻¹ and a kon of 104000 M⁻¹ s⁻¹.

B3: AMX-500(1x-N) (bispecific antibody)
chain: ASSATPESGPGTSTEPSEGSAPGTSESATPESGPGSGPGTSESATPGTSESATPESGPGSEPATSGSETPGTSESATPESGPGTSTEPSEGSAPGSPAGSPTSTEEGTSESATPESGPGSEPATSGSETPGTSESATPESGPGSPAGSPTSTEEGSPAGSPTSTEEGTSTEPSEGSAPGTSESATPESGPGTSESATPESGPGTSESATPESGPGSEPATSGSETPGSEPATSGSETPGSPAGSPTSTEEGTSTEPSEGSAPGTSTEPSEGSAPGSEPATSGSETPGTSESATPEAGRSASHTPAGLTGPGTSESATPESQVQLVESGGGVVQPGRSLRLSCAASGRTFGIYVWGWFRQAPGKEREFVGAMSWSGSNRKVSDSVKGRFTISRDNSKNTLYLQMNSLRAEDTAVYYCAASNKEYGRTWYDFNESDYWGQGTQVTVSSGGGGSGGGSELVVTQEPSLTVSPGGTVTLTCRSSNGAVTSSNYANWVQQKPGQAPRGLIGGTNKRAPGTPARFSGSLLGGKAALTLSGVQPEDEAVYYCALWYPNLWVFGGGTKLTVLSESATPESGPGTSPGATPESGPGTSESATPEVQLVESGGGIVQPGGSLRLSCAASGFTFSTYAMNWVRQAPGKGLEWVGRIRTKRNNYATYYADSVKGRFTISRDDSKNTVYLQMNSLKTEDTAVYYCVRHENFGNSYVSWFAHWGQGTLVTVSSGTATPESGPG
notes: Lacks the mask linked to the CD3 domain
Regarding B3, the Kd in assay [1] turned out to be 38 nM; with human CD3 epsilon it was 46.3 nM; in the assay with cynomolgus monkey PSMA, 2400 nM; in the assay with human PSMA it was 230 nM. The koff in assay [1] worked out at 0.1 s⁻¹; in the assay with human CD3 epsilon, 0.1 s⁻¹; in the assay with cynomolgus monkey PSMA it was 0.039 s⁻¹; with human PSMA, 0.012 s⁻¹. For the same molecule, the kon in assay [1] worked out at 2.9e+06 M⁻¹ s⁻¹; in the assay with human CD3 epsilon, 2.8e+06 M⁻¹ s⁻¹; in the assay with cynomolgus monkey PSMA, 16000 M⁻¹ s⁻¹; with human PSMA, 50000 M⁻¹ s⁻¹.

B4: AMX-500(1x-C) (bispecific antibody)
chain: GTSESATPESQVQLVESGGGVVQPGRSLRLSCAASGRTFGIYVWGWFRQAPGKEREFVGAMSWSGSNRKVSDSVKGRFTISRDNSKNTLYLQMNSLRAEDTAVYYCAASNKEYGRTWYDFNESDYWGQGTQVTVSSGGGGSGGGSELVVTQEPSLTVSPGGTVTLTCRSSNGAVTSSNYANWVQQKPGQAPRGLIGGTNKRAPGTPARFSGSLLGGKAALTLSGVQPEDEAVYYCALWYPNLWVFGGGTKLTVLSESATPESGPGTSPGATPESGPGTSESATPEVQLVESGGGIVQPGGSLRLSCAASGFTFSTYAMNWVRQAPGKGLEWVGRIRTKRNNYATYYADSVKGRFTISRDDSKNTVYLQMNSLKTEDTAVYYCVRHENFGNSYVSWFAHWGQGTLVTVSSGTATPESGPGEAGRSASHTPAGLTGPATPESGPGTSESATPESGPGSPAGSPTSTEEGTSESATPESGPGSEPATSGSETPGTSESATPESGPGTSTEPSEGSAPGTSTEPSEGSAPGTSTEPSEGSAPGTSTEPSEGSAPGTSTEPSEGSAPGTSTEPSEGSAPGSPAGSPTSTEEGTSTEPSEGSAPGTSESATPESGPGSEPATSGSETPGTSESATPESGPGSEPATSGSETPGTSESATPESGPGTSTEPSEGSAPGTSESATPESGPGSPAGSPTSTEEGSPAGSPTSTEEGSPAGSPTSTEEGTSESATPESGPGTSTEPSEGSAPGTSESATPESGPGSEPATSGSETPGTSESATPESGPGSEPATSGSETPGTSESATPESGPGTSTEPSEGSAPGSPAGSPTSTEEGTSESATPESGPGSEPATSGSETPGTSESATPESGPGSPAGSPTSTEEGSPAGSPTSTEEGTSTEPSEGSAPGTSESATPESGPGTSESATPESGPGTSPSATPESGPGSEPATSGSETPGSEPATSGSETPGSPAGSPTSTEEGTSTEPSEGSAPGTSTEPSEGSAPGSEPATSGSETPGTSESAGEPEA
notes: Lacks the mask linked to the PSMA domain
Regarding B4, the dissociation constant (Kd) in assay [1] was found to be 26.7 nM; with human CD3 epsilon it was 34.4 nM; with cynomolgus monkey PSMA, 2900 nM; with human PSMA, 353 nM. For the same molecule, the koff in assay [1] was found to be 0.1 s⁻¹; in the assay with human CD3 epsilon, 0.1 s⁻¹; with cynomolgus monkey PSMA it was 0.039 s⁻¹; in the assay with human PSMA, 0.012 s⁻¹. Besides, the kon in assay [1] amounted to 3.4e+06 M⁻¹ s⁻¹; with human CD3 epsilon it was 3.2e+06 M⁻¹ s⁻¹; in the assay with cynomolgus monkey PSMA, 14000 M⁻¹ s⁻¹; with human PSMA it was 35000 M⁻¹ s⁻¹.
